Patent US20050276799A1 (PDL BIOPHARMA, published 2005)
Read-outs that look alike come from different tables or passages of the source.

What was measured:
[1] = target: T1, recombinant, GPI-linked human FcRn on cell line NS0 HuFcRn (memb), clone 7-3 (human, UniProt P55899 24-297; P61769 21-119); experiment: IC50 of wild-type / IC50 of this antibody, same assay
T1 construct: Expressed from pDL208 on the surface of NS0 cells; also called human neonatal Fc receptor; not shown: human c-myc decapeptide flanked by linker peptides, then GPI linkage signal of human decay accelerating factor (vector p)

[2] = target: T2, recombinant, GPI-linked rhesus FcRn on cell line NS0 RhFcRn, clone R-3 (rhesus, UniProt H9Z6D2 24-297; Q6V7J5 21-119, GPI-linked); experiment: as above
T2 construct: Expressed from pDL410 on the surface of NS0 cells; not shown: human c-myc decapeptide flanked by linker peptides, then GPI linkage signal of human decay accelerating factor (vector p)

[3] = target: T1, recombinant, GPI-linked human FcRn on …; experiment: as above; remark: listed apart in the source
[4] = target: T1, recombinant, GPI-linked human FcRn on …; experiment: competition FACS vs biotinylated human IgG on NS0 cells expressing human FcRn, FBB pH 6.0
[5] = target: T1, recombinant, GPI-linked human FcRn on …; experiment: IC50 of wild-type / IC50 of this antibody, same assay; remark: listed apart in the source
[6] = target: T1, recombinant, GPI-linked human FcRn on …; experiment: competition FACS vs biotinylated human IgG on NS0 cells expressing human FcRn, FBB pH 6.0; remark: listed apart in the source

Row | Binder | Relative Binding [3] | IC50 [4] | Relative Binding [5] | IC50 [6] | also measured
1 | Hu1D10-IgG4 wild-type (antibody) heavy: not shown light: DIQMTQSPSSLSASVGDRVTITCRASENIYSYLAWYQQKPGKAPKLLVSNAKTLAEGVPSRFSGSGSGKQFTLTISSLQPEDFATYYCQHHYGNSYPFGQGTKLEIKRTVAAPSVFIFPPSDEQLKSGTASVVCLLNNFYPREAKVQWKVDNALQSGNSQESVTEQDSKDSTYSLSSTLTLSKADYEKHKVYACEVTHQGLSSPVTKSFNRGEC |  |  |  |  | Relative Binding [1]: 1 ratio; Relative Binding [2]: 1 ratio
2 | Dac-IgG1 wild-type (daclizumab) (antibody, Humanized anti-CD25; also called Dac-IgG1 WT) heavy: not shown light: DIQMTQSPSTLSASVGDRVTITCSASSSISYMHWYQQKPGKAPKLLIYTTSNLASGVPARFSGSGSGTEFTLTISSLQPDDFATYYCHQRSTYPLTFGQGTKVEVKRTVAAPSVFIFPPSDEQLKSGTASVVCLLNNFYPREAKVQWKVDNALQSGNSQESVTEQDSKDSTYSLSSTLTLSKADYEKHKVYACEVTHQGLSSPVTKSFNRGEC | 1 ratio | 20.4 µg/mL |  |  | 
3 | Dac-IgG2M3 wild-type (antibody, also called Dac-IgG2M3 WT) heavy: QVQLVQSGAEVKKPGSSVKVSCKASGYTFTSYRMHWVRQAPGQGLEWIGYINPSTGYTEYNQKFKDKATITADESTNTAYMELSSLRSEDTAVYYCARGGGVFDYWGQGTLVTVSSASTKGPSVFPLAPCSRSTSESTAALGCLVKDYFPEPVTVSWNSGALTSGVHTFPAVLQSSGLYSLSSVVTVPSSNFGTQTYTCNVDHKPSNTKVDKTVERKCCVECPPCPAPPAAAPSVFLFPPKPKDTLMISRTPEVTCVVVDVSHEDPEVQFNWYVDGVEVHNAKTKPREEQFNSTFRVVSVLTVVHQDWLNGKEYKCKVSNKGLPAPIEKTISKTKGQPREPQVYTLPPSREEMTKNQVSLTCLVKGFYPSDIAVEWESNGQPENNYKTTPPMLDSDGSFFLYSKLTVDKSRWQQGNVFSCSVMHEALHNHYTQKSLSLSPGK light: DIQMTQSPSTLSASVGDRVTITCSASSSISYMHWYQQKPGKAPKLLIYTTSNLASGVPARFSGSGSGTEFTLTISSLQPDDFATYYCHQRSTYPLTFGQGTKVEVKRTVAAPSVFIFPPSDEQLKSGTASVVCLLNNFYPREAKVQWKVDNALQSGNSQESVTEQDSKDSTYSLSSTLTLSKADYEKHKVYACEVTHQGLSSPVTKSFNRGEC |  |  | 1 ratio | 71.4 µg/mL | 
4 | Dac-IgG1 T250Q/M428L (antibody, also called T250Q/M428L daclizumab) heavy: not shown light: DIQMTQSPSTLSASVGDRVTITCSASSSISYMHWYQQKPGKAPKLLIYTTSNLASGVPARFSGSGSGTEFTLTISSLQPDDFATYYCHQRSTYPLTFGQGTKVEVKRTVAAPSVFIFPPSDEQLKSGTASVVCLLNNFYPREAKVQWKVDNALQSGNSQESVTEQDSKDSTYSLSSTLTLSKADYEKHKVYACEVTHQGLSSPVTKSFNRGEC | 33 ratio | 0.626 µg/mL |  |  | 
5 | Dac-IgG2M3 T250Q/M428L (antibody) heavy: QVQLVQSGAEVKKPGSSVKVSCKASGYTFTSYRMHWVRQAPGQGLEWIGYINPSTGYTEYNQKFKDKATITADESTNTAYMELSSLRSEDTAVYYCARGGGVFDYWGQGTLVTVSSASTKGPSVFPLAPCSRSTSESTAALGCLVKDYFPEPVTVSWNSGALTSGVHTFPAVLQSSGLYSLSSVVTVPSSNFGTQTYTCNVDHKPSNTKVDKTVERKCCVECPPCPAPPAAAPSVFLFPPKPKDQLMISRTPEVTCVVVDVSHEDPEVQFNWYVDGVEVHNAKTKPREEQFNSTFRVVSVLTVVHQDWLNGKEYKCKVSNKGLPAPIEKTISKTKGQPREPQVYTLPPSREEMTKNQVSLTCLVKGFYPSDIAVEWESNGQPENNYKTTPPMLDSDGSFFLYSKLTVDKSRWQQGNVFSCSVLHEALHNHYTQKSLSLSPGK light: DIQMTQSPSTLSASVGDRVTITCSASSSISYMHWYQQKPGKAPKLLIYTTSNLASGVPARFSGSGSGTEFTLTISSLQPDDFATYYCHQRSTYPLTFGQGTKVEVKRTVAAPSVFIFPPSDEQLKSGTASVVCLLNNFYPREAKVQWKVDNALQSGNSQESVTEQDSKDSTYSLSSTLTLSKADYEKHKVYACEVTHQGLSSPVTKSFNRGEC |  |  | 18 ratio | 4.02 µg/mL | 
